System: (GR)10
Assay: Cleavage of (GR)10 by enzymes in solution (PBS with CaCl2 and MgCl2), LC/MS of GR repeats
Format: biochemical
Settings: for (GR)1 concentration / (GR)2 concentration / (GR)3 concentration / (GR)4 concentration / (GR)5 concentration / (GR)6 concentration / (GR)8 concentration / (GR)10 concentration: (GR)10 50 μM; for (GR)1 / (GR)2 / (GR)3 / (GR)4 / (GR)5 / (GR)6 / (GR)8 / (GR)10: PBS, normalized
Description: • (GR)10 dipeptide (also (GR)8, (GR)6, (GR)4, (GR)2) were synthetized by solid-phase synthesis by CanPeptide; All peptides are uncapped and supplied lyophilized with TFA as counter ions. Purity was always above 95%. • Buffer: PBS buffer containing CaCl2 and MgCl2. • Stock solution of enzyme (e.g., 10 mg/mL) (prepared per manufacturer instructions) in PBS. Activators added as necessary. • Working solution of protein of the desired concentration (e.g., 100 μg/mL) prepared immediately before use by diluting the stock solution (e.g., 5 μL of 10 mg/mL stock solution) in PBS buffer (e.g., in 495 μL of PBS). Exemplary Procedure Using 50 μM Concentrations of (GR)10
25 μL of a 100 μM solution of (GR)10 was added to each well of a 96-well plate. 25 μL of a solution of enzyme (two times the desired final enzyme concentration) was added, and the plates were incubated at room temperature. At the specified time points (5 minutes, 10 minutes, 30 minutes, 60 minutes, and 180 minutes) 2.5 μL of a 10% TFA solution were added to stop the reaction. For the time 0 min well, the TFA was added to the well before addition of the enzyme. After last time point, all samples were further diluted with 150 μL of dilution solution. The quenched reaction mixtures were analyzed by LC/MS to determine the concentration of GR repeats of different lengths.
The chromatography and mass spectrometry conditions utilized are shown in Table 2 and Table 3, respectively.

B1: Trypsin: protease cleaving at the carboxyl side of lysine or arginine; in Table 21 also immobilized in-house on NHS-activated agarose resin (protein, UniProt P00760 24-246, looked up)
Serine protease 1: IVGGYTCGANTVPYQVSLNSGYHFCGGSLINSQWVVSAAHCYKSGIQVRLGEDNINVVEGNEQFISASKSIVHPSYNSNTLNNDIMLIKLKSAASLNSRVASISLPTSCASAGTQCLISGWGNTKSSGTSYPDVLKCLKAPILSDSSCKSAYPGQITSNMFCAGYLEGGKDSCQGDSGGPVVCSGKLQGIVSWGSGCAQKNKPGVYTKVCNYVSWIKQTIASN
(GR)1 concentration (enzyme 2.5 μg/mL, 0 min): BLQ | (GR)2 concentration (enzyme 2.5 μg/mL, 0 min): BLQ | (GR)3 concentration (enzyme 2.5 μg/mL, 0 min): BLQ | (GR)4 concentration (enzyme 2.5 μg/mL, 0 min): BLQ | (GR)5 concentration (enzyme 2.5 μg/mL, 0 min): BLQ | (GR)6 concentration (enzyme 2.5 μg/mL, 0 min): BLQ | (GR)8 concentration (enzyme 2.5 μg/mL, 0 min): 0.5 µM | (GR)10 concentration (enzyme 2.5 μg/mL, 0 min): 52.8 µM | (GR)1 concentration (enzyme 2.5 μg/mL, 5 min): 114.3 µM | (GR)2 concentration (enzyme 2.5 μg/mL, 5 min): 157.8 µM | (GR)3 concentration (enzyme 2.5 μg/mL, 5 min): 0.1 µM | (GR)4 concentration (enzyme 2.5 μg/mL, 5 min): BLQ | (GR)5 concentration (enzyme 2.5 μg/mL, 5 min): BLQ | (GR)6 concentration (enzyme 2.5 μg/mL, 5 min): BLQ | (GR)8 concentration (enzyme 2.5 μg/mL, 5 min): 0.1 µM | (GR)10 concentration (enzyme 2.5 μg/mL, 5 min): 2.2 µM | (GR)1 concentration (enzyme 2.5 μg/mL, 10 min): 124.7 µM | (GR)2 concentration (enzyme 2.5 μg/mL, 10 min): 167.7 µM | (GR)3 concentration (enzyme 2.5 μg/mL, 10 min): 0.1 µM | (GR)4 concentration (enzyme 2.5 μg/mL, 10 min): BLQ | (GR)5 concentration (enzyme 2.5 μg/mL, 10 min): BLQ | (GR)6 concentration (enzyme 2.5 μg/mL, 10 min): BLQ | (GR)8 concentration (enzyme 2.5 μg/mL, 10 min): BLQ | (GR)10 concentration (enzyme 2.5 μg/mL, 10 min): BLQ | (GR)1 concentration (enzyme 2.5 μg/mL, 30 min): 137.7 µM | (GR)2 concentration (enzyme 2.5 μg/mL, 30 min): 144.9 µM | (GR)3 concentration (enzyme 2.5 μg/mL, 30 min): BLQ | (GR)4 concentration (enzyme 2.5 μg/mL, 30 min): BLQ | (GR)5 concentration (enzyme 2.5 μg/mL, 30 min): BLQ | (GR)6 concentration (enzyme 2.5 μg/mL, 30 min): BLQ | (GR)8 concentration (enzyme 2.5 μg/mL, 30 min): BLQ | (GR)10 concentration (enzyme 2.5 μg/mL, 30 min): BLQ | (GR)1 concentration (enzyme 2.5 μg/mL, 60 min): 163.2 µM | (GR)2 concentration (enzyme 2.5 μg/mL, 60 min): 134.1 µM | (GR)3 concentration (enzyme 2.5 μg/mL, 60 min): BLQ | (GR)4 concentration (enzyme 2.5 μg/mL, 60 min): BLQ | (GR)5 concentration (enzyme 2.5 μg/mL, 60 min): BLQ | (GR)6 concentration (enzyme 2.5 μg/mL, 60 min): BLQ | (GR)8 concentration (enzyme 2.5 μg/mL, 60 min): BLQ | (GR)10 concentration (enzyme 2.5 μg/mL, 60 min): BLQ | (GR)1 concentration (enzyme 2.5 μg/mL, 120 min): 215.2 µM | (GR)2 concentration (enzyme 2.5 μg/mL, 120 min): 107.7 µM | (GR)3 concentration (enzyme 2.5 μg/mL, 120 min): BLQ | (GR)4 concentration (enzyme 2.5 μg/mL, 120 min): BLQ | (GR)5 concentration (enzyme 2.5 μg/mL, 120 min): BLQ | (GR)6 concentration (enzyme 2.5 μg/mL, 120 min): BLQ | (GR)8 concentration (enzyme 2.5 μg/mL, 120 min): BLQ | (GR)10 concentration (enzyme 2.5 μg/mL, 120 min): BLQ | (GR)1 concentration (enzyme 10 μg/mL, 0 min): 0.1 µM | (GR)2 concentration (enzyme 10 μg/mL, 0 min): BLQ | (GR)3 concentration (enzyme 10 μg/mL, 0 min): BLQ | (GR)4 concentration (enzyme 10 μg/mL, 0 min): BLQ | (GR)5 concentration (enzyme 10 μg/mL, 0 min): BLQ | (GR)6 concentration (enzyme 10 μg/mL, 0 min): BLQ | (GR)8 concentration (enzyme 10 μg/mL, 0 min): 0.5 µM | (GR)10 concentration (enzyme 10 μg/mL, 0 min): 48.9 µM | (GR)1 concentration (enzyme 10 μg/mL, 5 min): 124.4 µM | (GR)2 concentration (enzyme 10 μg/mL, 5 min): 138.9 µM | (GR)3 concentration (enzyme 10 μg/mL, 5 min): BLQ | (GR)4 concentration (enzyme 10 μg/mL, 5 min): BLQ | (GR)5 concentration (enzyme 10 μg/mL, 5 min): BLQ | (GR)6 concentration (enzyme 10 μg/mL, 5 min): BLQ | (GR)8 concentration (enzyme 10 μg/mL, 5 min): BLQ | (GR)10 concentration (enzyme 10 μg/mL, 5 min): 2.0 µM | (GR)1 concentration (enzyme 10 μg/mL, 10 min): 156.5 µM | (GR)2 concentration (enzyme 10 μg/mL, 10 min): 148.1 µM | (GR)3 concentration (enzyme 10 μg/mL, 10 min): BLQ | (GR)4 concentration (enzyme 10 μg/mL, 10 min): BLQ | (GR)5 concentration (enzyme 10 μg/mL, 10 min): BLQ | (GR)6 concentration (enzyme 10 μg/mL, 10 min): BLQ | (GR)8 concentration (enzyme 10 μg/mL, 10 min): BLQ | (GR)10 concentration (enzyme 10 μg/mL, 10 min): BLQ | (GR)1 concentration (enzyme 10 μg/mL, 30 min): 212.6 µM | (GR)2 concentration (enzyme 10 μg/mL, 30 min): 110.1 µM | (GR)3 concentration (enzyme 10 μg/mL, 30 min): BLQ | (GR)4 concentration (enzyme 10 μg/mL, 30 min): BLQ | (GR)5 concentration (enzyme 10 μg/mL, 30 min): BLQ | (GR)6 concentration (enzyme 10 μg/mL, 30 min): BLQ | (GR)8 concentration (enzyme 10 μg/mL, 30 min): BLQ | (GR)10 concentration (enzyme 10 μg/mL, 30 min): BLQ | (GR)1 concentration (enzyme 10 μg/mL, 60 min): 289.7 µM | (GR)2 concentration (enzyme 10 μg/mL, 60 min): 58.6 µM | (GR)3 concentration (enzyme 10 μg/mL, 60 min): BLQ | (GR)4 concentration (enzyme 10 μg/mL, 60 min): BLQ | (GR)5 concentration (enzyme 10 μg/mL, 60 min): BLQ | (GR)6 concentration (enzyme 10 μg/mL, 60 min): BLQ | (GR)8 concentration (enzyme 10 μg/mL, 60 min): BLQ | (GR)10 concentration (enzyme 10 μg/mL, 60 min): BLQ | (GR)1 concentration (enzyme 10 μg/mL, 120 min): 349.9 µM | (GR)2 concentration (enzyme 10 μg/mL, 120 min): 10.7 µM | (GR)3 concentration (enzyme 10 μg/mL, 120 min): BLQ | (GR)4 concentration (enzyme 10 μg/mL, 120 min): BLQ | (GR)5 concentration (enzyme 10 μg/mL, 120 min): BLQ | (GR)6 concentration (enzyme 10 μg/mL, 120 min): BLQ | (GR)8 concentration (enzyme 10 μg/mL, 120 min): BLQ | (GR)10 concentration (enzyme 10 μg/mL, 120 min): BLQ | (GR)1 (in solution - 5 min reaction): 178.0 µM | (GR)2 (in solution - 5 min reaction): 0.0 µM | (GR)3 (in solution - 5 min reaction): 0.0 µM | (GR)4 (in solution - 5 min reaction): 0.0 µM | (GR)5 (in solution - 5 min reaction): 0.0 µM | (GR)6 (in solution - 5 min reaction): 0.0 µM | (GR)8 (in solution - 5 min reaction): 0.0 µM | (GR)10 (in solution - 5 min reaction): 0.0 µM | (GR)1 (in solution - 60 min reaction): 321.4 µM | (GR)2 (in solution - 60 min reaction): 154.0 µM | (GR)3 (in solution - 60 min reaction): 0.0 µM | (GR)4 (in solution - 60 min reaction): 0.0 µM | (GR)5 (in solution - 60 min reaction): 0.0 µM | (GR)6 (in solution - 60 min reaction): 0.0 µM | (GR)8 (in solution - 60 min reaction): 0.0 µM | (GR)10 (in solution - 60 min reaction): 0.0 µM

Reference: US11419921B2, “Methods of treating neurological disorders” (EnClear Therapies, Inc., priority 2018, dated 2022)
